This is an account of results in publication PMC6576074, “NF‐YB1‐YC12‐bHLH144 complex directly activates Wx to regulate grain quality in rice (Oryza sativa L.)”.

Series [1] has as its target HIS‐NF‐YB1 (rice (Oryza sativa L.)) (UniProt Q6Z348).
The target in series [2] is LGF2‐pBT. The experiment in a line: two-hybrid; bacterial two-hybrid (BacterioMatch II) in E. coli XL1‐Blue MRF′; NF‐YB1‐pTRG and NF‐YCs‐pBT; growth on M9/+Cm/+Ter/+3‐AT/+Strep/‐HIS against M9/+Cm/+Ter; intensity = ratio (%) of colony numbers.
The target in series [3] is T1, HIS-NF-YB1 (Oryza sativa L. (rice; cultivar not …, UniProt Q6Z348 1-186).
T1 sequence: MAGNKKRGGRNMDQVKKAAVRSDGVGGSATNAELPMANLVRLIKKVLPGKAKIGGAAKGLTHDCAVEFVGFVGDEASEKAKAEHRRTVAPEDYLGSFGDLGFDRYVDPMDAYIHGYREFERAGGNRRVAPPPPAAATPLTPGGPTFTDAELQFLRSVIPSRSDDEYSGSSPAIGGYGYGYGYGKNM
The experiment in a line: EMSA; EMSA: Beyotime EMSA/Gel-shift binding buffer (composition and pH not given), 10 uL, 2 nmol biotin probe, 5 nmol protein, 20 min preincubation + 20 min at 25 C. The conditions noted are these: protein: recombinant; tags: N-terminal His (pET28a); label: biotin; blunt. (In general: A gel shift assay detects complexes by their altered migration in electrophoresis.)

The target of series [4] is GST‐NF‐YC12 (rice (Oryza sativa L.)).
Series [5] addresses NF‐YC12‐pBT (rice (Oryza sativa L.)). The experiment in a line: two-hybrid; bacterial two-hybrid (BacterioMatch II) in E. coli XL1‐Blue MRF′; NF‐YB1‐pTRG and NF‐YCs‐pBT; growth on M9/+Cm/+Ter/+3‐AT/+Strep/‐HIS against M9/+Cm/+Ter; intensity = ratio (%) of colony numbers.

Take HIS‐bHLH144‐FLAG (natural protein): in series [1], the half-life of HIS‐NF‐YB1 in a cell-free degradation assay with GST‐NF‐YC12 and HIS‐bHLH144‐FLAG added (heterotrimer); around 15 min for HIS‐NF‐YB1 alone stood at 40 min. With Gal11‐pTRG, the interaction intensity (ratio of colony numbers on selective and non-selective medium) in series [2] worked out at 33.8%.

B1: Wx promoter probe 3 (dsDNA)
DNA 1: CGTAATTCCAAGTTCTTTTTTTTTTGTCAGCACGTACAAGCAGCCGCTAGCCTCGCCCTG
DNA 2: CAGGGCGAGGCTAGCGGCTGCTTGTACGTGCTGACAAAAAAAAAAGAACTTGGAATTACG
In the case of B1, in series [3], the binding result is given as “no binding”.

B2: Wx promoter probe 4 (dsDNA)
DNA 1: CAACGTGCCAACGTACGCACGCTAACGTGAGTCATGTAGCGTAATTCCAAGTTCTTTTTT
DNA 2: AAAAAAGAACTTGGAATTACGCTACATGACTCACGTTAGCGTGCGTACGTTGGCACGTTG
Consider B2, for which, in series [3], the binding result is “no binding”.

B3: HIS‐NF‐YB1 (natural protein)
chain: MAGNKKRGGRNMDQVKKAAVRSDGVGGSATNAELPMANLVRLIKKVLPGKAKIGGAAKGLTHDCAVEFVGFVGDEASEKAKAEHRRTVAPEDYLGSFGDLGFDRYVDPMDAYIHGYREFERAGGNRRVAPPPPAAATPLTPGGPTFTDAELQFLRSVIPSRSDDEYSGSSPAIGGYGYGYGYGKNM
For B3, the half-life of HIS‐NF‐YB1 in a cell-free degradation assay (total protein extract of 10 DAG rice seedlings) with GST‐NF‐YC12 added; around 15 min for HIS‐NF‐YB1 alone in series [4] came to 30 min.

B4: NF‐YB1‐pTRG (natural protein)
chain: MAGNKKRGGRNMDQVKKAAVRSDGVGGSATNAELPMANLVRLIKKVLPGKAKIGGAAKGLTHDCAVEFVGFVGDEASEKAKAEHRRTVAPEDYLGSFGDLGFDRYVDPMDAYIHGYREFERAGGNRRVAPPPPAAATPLTPGGPTFTDAELQFLRSVIPSRSDDEYSGSSPAIGGYGYGYGYGKNM
Take B4: the interaction intensity (ratio of colony numbers on selective and non-selective medium) in series [5] amounted to 63.7%.

B5: Wx promoter probe 5 (dsDNA)
DNA 1: AGATCATATCGTCTCCAGACTCAAGTGCACGTTGATCGTTCGCTCACTGCTTCATCGATC
DNA 2: GATCGATGAAGCAGTGAGCGAACGATCAACGTGCACTTGAGTCTGGAGACGATATGATCT
With B5, the binding result in series [3] was “no binding”.

B6: Wx promoter probe 2 (dsDNA)
DNA 1: CAGGCACTCAGCTCGCTGCTGGTCCCGCACGTCGCCACACGATCGACGTACGCACGCGAG
DNA 2: CTCGCGTGCGTACGTCGATCGTGTGGCGACGTGCGGGACCAGCAGCGAGCTGAGTGCCTG
As for B6, the binding result in series [3] is “no binding”.
